This note sets out measurements from patent publication US20030180892A1.

This assay addresses IL-17-like receptor (on the BIAcore surface). Briefly: BIAcore (SPR), negative control conditioned media. (SPR reads the build-up and loss of mass on a sensor chip optically.)

Regarding pC4 control conditioned media, the response (RU) is 20 RU.
